Peptide text beside a SMILES is read from it.
T1: binary FGFR1c-Klotho complex (UniProt O35082+P11362)
T1 construct: The ectodomain of murine Klotho (A35 to K982) was purified from culture media; FLAG (C); made in house; host or cells: E. coli (FGFR1c, FGF23); HEK293 (Klotho ectodomain)
T1 sequence (P11362 142-365): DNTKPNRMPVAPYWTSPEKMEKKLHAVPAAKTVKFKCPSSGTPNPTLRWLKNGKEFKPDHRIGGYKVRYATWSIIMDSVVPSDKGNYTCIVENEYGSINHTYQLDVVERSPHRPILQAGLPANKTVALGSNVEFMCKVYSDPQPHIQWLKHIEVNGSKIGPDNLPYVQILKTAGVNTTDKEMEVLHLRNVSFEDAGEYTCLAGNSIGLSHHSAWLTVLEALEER
T1 sequence (O35082 35-982): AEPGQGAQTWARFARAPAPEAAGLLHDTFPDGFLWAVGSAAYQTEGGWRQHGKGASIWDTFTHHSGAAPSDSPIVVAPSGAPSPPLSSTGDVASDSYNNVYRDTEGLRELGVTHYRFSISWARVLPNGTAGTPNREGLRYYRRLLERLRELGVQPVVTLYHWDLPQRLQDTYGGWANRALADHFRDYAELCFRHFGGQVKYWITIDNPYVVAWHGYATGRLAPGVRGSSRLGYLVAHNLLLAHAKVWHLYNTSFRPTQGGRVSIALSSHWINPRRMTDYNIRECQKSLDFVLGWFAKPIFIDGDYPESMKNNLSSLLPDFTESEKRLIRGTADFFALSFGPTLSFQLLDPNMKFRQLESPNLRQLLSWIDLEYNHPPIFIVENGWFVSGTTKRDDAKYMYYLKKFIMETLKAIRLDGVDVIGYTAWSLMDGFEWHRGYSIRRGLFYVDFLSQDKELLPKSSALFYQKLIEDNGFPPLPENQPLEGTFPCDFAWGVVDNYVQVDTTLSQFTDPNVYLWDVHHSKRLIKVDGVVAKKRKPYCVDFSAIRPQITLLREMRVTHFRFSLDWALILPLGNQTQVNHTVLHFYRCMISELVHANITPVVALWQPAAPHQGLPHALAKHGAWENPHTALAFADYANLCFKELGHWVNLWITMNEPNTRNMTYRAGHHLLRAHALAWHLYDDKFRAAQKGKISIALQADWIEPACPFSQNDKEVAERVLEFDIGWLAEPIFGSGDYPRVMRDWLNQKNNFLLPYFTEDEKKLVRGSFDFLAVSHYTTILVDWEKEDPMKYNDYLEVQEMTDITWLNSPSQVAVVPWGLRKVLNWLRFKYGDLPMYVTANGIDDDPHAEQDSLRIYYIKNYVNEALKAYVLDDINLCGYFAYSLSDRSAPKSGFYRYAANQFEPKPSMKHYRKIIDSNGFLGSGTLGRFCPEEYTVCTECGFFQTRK


Target: T1, binary FGFR1c-Klotho complex
Assay: SPR competition: FGFR1c-Klotho binding to immobilized FGF23^28-251
Design: species or system human FGFR1c, murine Klotho
Conditions: for inhibition of FGFR1c-Klotho binding to immobilized FGF23^28-251: FGF21^168-209 at molar ratios of 6:1 and 10:1; for rightward shift of dose-response curve compared to full-length FGF23: FIG. 3D
Experimental: A variety of interaction or binding assays can be used to determine that an agent specifically binds the binary FGFR-Klotho complex, such as the SPR interaction analysis described below. One aspect of the present invention utilizes SPR analysis of FGF23 protein/peptide binding to the binary FGFR-Klotho complex. The SPR analysis involved FGF23 protein/peptide immobilization by amine coupling on flow channels of a chip. Proteins were injected over the chip at a flow rate of 50 μl min^−1, and at the end of each protein injection (180 s), HBS-EP buffer (10 mM HEPES-NaOH, pH 7.4, 150 mM NaCl, 3 mM EDTA, 0.005% (v/v) polysorbate 20; 50 μl min^−1) was flowed over the chip to monitor dissociation for 180 s. The chip surface was then regenerated by injecting 50 μl of 2.0 M NaCl in 10 mM sodium acetate, pH 4.5. […] For each protein injection over a FGF23 protein/peptide chip, the nonspecific responses from the FHF1B control flow channel were subtracted from the responses recorded for the flow channel onto which FGF23 protein/peptide was immobilized. To analyze FGF23 binding to the binary FGFR1c-Klotho complex, FGF23^28-251 was coupled to a chip, and increasing concentrations of 1:1 complex of the ectodomains of FGFR1c and Klotho in HBS-EP buffer were passed over the chip. To measure binding of the C-terminal tail of FGF23 to the binary FGFR1c-Klotho complex, FGF23^180-251 was immobilized on a chip, and increasing concentrations of 1:1 complex of the ectodomains of FGFR1c and Klotho in HBS-EP buffer were passed over the chip. To examine whether the C-terminal tail of FGF23 can compete with full-length FGF23 for binding to the binary FGFR1c-Klotho complex, FGF23^28-251 was immobilized on a chip. Increasing concentrations of FGF23^180-251 were mixed with a fixed concentration of 1:1 complex of the ectodomains of FGFR1c and Klotho in HBS-EP buffer, and the mixtures were passed over the chip. As a control, competition of FGF23 in solution with immobilized FGF23 for binding to the binary FGFR1c-Klotho complex was studied. Increasing concentrations of FGF23^28-251 were mixed with a fixed concentration of 1:1 complex of the ectodomains of FGFR1c and Klotho in HBS-EP buffer, and the mixtures were passed over the FGF23 chip. Competition of the FGF23 C-terminal tail peptide with full-length FGF23 for binding to the binary FGFR1c-Klotho complex was also studied using the “reverse” SPR assay format, where FGF23^180-251 was immobilized on a chip and mixtures of a fixed concentration of 1:1 complex of the ectodomains of FGFR1c and Klotho with increasing concentrations of FGF23^28-251 were passed over the chip. As a control, competition of FGF23 C-terminal tail peptide in solution with immobilized FGF23 C-terminal tail peptide for binding to the binary FGFR1c-Klotho complex was analyzed. Increasing concentrations of FGF23^180-251 were mixed with a fixed concentration of 1:1 complex of the ectodomains of FGFR1c and Klotho in HBS-EP buffer, and the mixtures were passed over the FGF23^180-251 chip. To verify the specificity of the interaction between the FGF23 C-terminal tail and the FGFR1c-Klotho complex, FGF23^28-251 was immobilized on a chip. Increasing concentrations of FGF21^168-209 were mixed with a fixed concentration of 1:1 complex of the ectodomains of FGFR1c and Klotho in HBS-EP buffer, and the mixtures were passed over the chip. In addition, the ability of the FGF23 C-terminal tail peptide to interfere with binary complex formation between βKlotho and either FGF19 or FGF21 was tested, as was its ability to interfere with ternary complex formation between βKlotho, FGFR, and either FGF19 or FGF21. FGF19^23-216 and FGF21^29-209 were immobilized on two flow channels of a chip. FGF23^180-251 and the ectodomain of βKlotho were mixed at a molar ratio of 2:1, and the mixture was injected over the chip. Next, FGF23^180-251 and the 1:1 complex of the ectodomains of FGFR1c and βKlotho were mixed at a molar ratio of 10:1, and the mixture was passed over the FGF19/FGF21 chip. […]

Row | molar excess over FGFR1c-Klotho complex at half-maximum inhibition of FGFR1c-Klotho binding to FGF23^28-251 (FGF23^28-251 chip) [fold molar excess] | rightward shift of dose-response curve compared to full-length FGF23 | amount relative to FGFR1c-Klotho complex yielding 50% inhibition of binding to immobilized FGF23^28-251 (FGF23^28-251 chip, control) | Molecule | inhibition of FGFR1c-Klotho binding to immobilized FGF23^28-251
1 | 5.7 | ~6 fold | – | CSCC[C@H](NC(=O)[C@H](CCCNC(=N)N)NC(=O)[C@H](C)NC(=O)[C@H](CCCNC(=N)N)NC(=O)[C@@H]1CCCN1C(=O)[C@H](CCCCN)NC(=O)[C@H](CC(C)C)NC(=O)[C@@H](NC(=O)[C@H](CC(N)=O)NC(=O)[C@H](CC(C)C)NC(=O)[C@@H]1CCCN1C(=O)[C@H](CC(=O)O)NC(=O)[C@H](CCCNC(=N)N)NC(=O)[C@H](CCC(=O)O)NC(=O)[C@H](CO)NC(=O)[C@H](CC(=O)O)NC(=O)[C@H](CC(=O)O)NC(=O)[C@H](CCC(=O)O)NC(=O)[C@H](C)NC(=O)[C@@H](N)CO)C(C)C)C(=O)N[C@H](C(=O)N1CCC[C@H]1C(=O)N[C@@H](C)C(=O)N1CCC[C@H]1C(=O)N[C@@H](C)C(=O)N[C@@H](CO)C(=O)O)[C@@H](C)O [FGF23^180-205] (H-SAEDDSERDPLNVLKPRARMTPAPAS-OH; N-terminus and C-terminus assumed) | able to compete, in a dose-dependent fashion
2 | 3.3 | about 3 fold | – | FGF23^180-251: 72-amino acid C-terminal tail of human FGF23 (S180 to I251), expressed in E. coli (protein, listed as Homo sapiens) SAEDDSERDPLNVLKPRARMTPAPASCSQELPSAEDNSPMASDPLGVVRGGRVNTHAGGTGPEGCRPFAKFI | competed, in a dose-dependent fashion
3 | – | – | less than an equimolar amount | FGF23^28-251: human FGF23 (A28 to I251), bioactive full-length ligand expressed in E. coli (protein, listed as Homo sapiens) ASPLLGSSWGGLIHLYTATARNSYHLQIHKNGHVDGAPHQTIYSALMIRSEDAGFVVITGVMSRRYLCMDFRGNIFGSHYFDPENCRFQHQTLENGYDVYHSPQYHFLVSLGRAKRAFLPGMNPPPYSQFLSRRNEIPLIHFNTPIPRRHTRSAEDDSERDPLNVLKPRARMTPAPASCSQELPSAEDNSPMASDPLGVVRGGRVNTHAGGTGPEGCRPFAKFI | –
